Laboratory results as given in publication PMC13138739, “Broadly conserved protective epitopes on the lyme disease vaccine antigen, OspA” (PLOS Pathogens, 2026).

Key:
[1] = target: T1, Native OspA ST3 on B. garinii PBr (Borrelia garinii PBr (OspA ST3), UniProt B8F1J0, strain); assay: flow cytometry on cells; live Borrelia primary isolates with native OspA ST1-7, 10 µg/ml mAb, Alexa 647-labeled goat anti-human IgG; conditions: one partner purified
T1 construct: native OspA (ST3) on the bacterial surface of the primary isolate; also called ST 3- B. garinii PBr; source: endogenous, on live B. garinii PBr

[2] = target: T2, Native OspA ST2 on B. afzelii Pko (Borrelia afzelii PKo (OspA ST2), UniProt P0A3N7); assay: as above; conditions: one partner purified
T2 construct: native OspA (ST2) on the bacterial surface of the primary isolate; also called ST 2- B. afzelii Pko; source: endogenous, on live B. afzelii Pko

[3] = target: T3, Native OspA ST4 on B. bavariensis PBi (Borrelia bavariensis PBi (OspA ST4), UniProt Q6LBF1, strain); assay: as above; conditions: one partner purified
T3 construct: native OspA (ST4) on the bacterial surface of the primary isolate; also called ST 4- B. bavariensis PBi; source: endogenous, on live B. bavariensis PBi

[4] = target: T4, Recombinant OspAST1 (residues 18–273) from B. burgdorferi B31 (Borrelia burgdorferi B31 (OspA ST1), UniProt P0CL66); assay: BLI; Octet RED96e; mAb captured on AHC sensors (0.4 µg/mL, 5 min), dipped into non-lipidated OspA 21.58 nM to 0.089 nM (10 min), dissociation 30 min; 0.1% BSA in PBS, 0.01% Tween20; global 1:1 model; conditions: both partners purified
T4 construct: source: tags removed with TEV protease; not shown: deca-histidine, N-terminal, cleaved; SUMO, N-terminal, cleaved

[5] = target: T5, OspA ST1 (B. burgdorferi B31 allele) on the B. burgdorferi HB19-R1 reporter strain (Borrelia burgdorferi B31 (OspA ST1), UniProt P0CL66); assay: flow cytometry on cells; live B. burgdorferi HB19-R1 reporter strains expressing OspA ST1-7, 10 µg/ml mAb, Alexa 647-labeled goat anti-human IgG; conditions: one partner purified
T5 construct: OspA of B. burgdorferi B31 (ST1), lipoprotein on the cell surface; a second wild type ST1 plasmid with silent mutations was used beside the residue 107 mutants; same protein; also called HB19-R1 OspAST1 reporter; source: B. burgdorferi HB19-R1 (lacks ospA), reporter plasmid pGW217, native ospAB promoter, on live cells

[6] = target: T6, OspA ST4 (B. bavariensis PBi allele) on the B. burgdorferi HB19-R1 reporter strain (Borrelia bavariensis PBi (OspA ST4), UniProt Q6LBF1, strain); assay: as above; conditions: one partner purified
T6 construct: OspA of B. bavariensis PBi (ST4); source: B. burgdorferi HB19-R1 (lacks ospA), reporter plasmid, native ospAB promoter of B31, on live cells

[7] = target: T7, OspA ST2 (B. afzelii PKo allele) on the B. burgdorferi HB19-R1 reporter strain (Borrelia afzelii PKo (OspA ST2), UniProt P0A3N7); assay: as above; conditions: one partner purified
T7 construct: OspA of B. afzelii PKo (ST2); source: B. burgdorferi HB19-R1 (lacks ospA), reporter plasmid, native ospAB promoter of B31, on live cells

[8] = target: OspA ST3 (B. garinii PBr allele) on the B. burgdorferi HB19-R1 reporter strain (Borrelia garinii PBr (OspA ST3), UniProt B8F1J0, strain); assay: as above; conditions: one partner purified
[9] = target: T8, Recombinant non-lipidated OspA serotype 2 (Borrelia afzelii (OspA ST2; strain not …, UniProt P0A3N7); assay: microsphere immunoassay (MIA); recombinant non-lipidated OspA ST 1-7 coupled to Magplex-C microspheres, serial dilutions of mAb, 1 x PBS, 2% BSA, pH 7.4, room temperature 1 hr, PE anti-human IgG Fc; conditions: both partners purified
T8 construct: OspA serotype 2, non-lipidated; also called recombinant OspA ST2; ST 2; source: E. coli, purified; provided by Dr. Meredith Finn (Moderna)

[10] = target: T9, Recombinant non-lipidated OspA serotype 4 (Borrelia bavariensis (OspA ST4; strain …, UniProt Q6LBF1, strain); assay: as above; conditions: both partners purified
T9 construct: OspA serotype 4, non-lipidated; also called recombinant OspA ST4; ST 4; source: E. coli, purified; provided by Dr. Meredith Finn (Moderna)

T7 sequence (P0A3N7 17-273): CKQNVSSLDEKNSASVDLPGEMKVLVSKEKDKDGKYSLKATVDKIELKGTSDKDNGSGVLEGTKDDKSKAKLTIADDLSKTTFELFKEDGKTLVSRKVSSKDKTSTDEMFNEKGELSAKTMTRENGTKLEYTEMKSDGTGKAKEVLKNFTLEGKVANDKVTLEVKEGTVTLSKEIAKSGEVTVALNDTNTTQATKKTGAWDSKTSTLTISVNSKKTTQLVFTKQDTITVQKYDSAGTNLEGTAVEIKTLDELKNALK
T8 sequence (P0A3N7 17-273): as above
T5 sequence (P0CL66 17-273): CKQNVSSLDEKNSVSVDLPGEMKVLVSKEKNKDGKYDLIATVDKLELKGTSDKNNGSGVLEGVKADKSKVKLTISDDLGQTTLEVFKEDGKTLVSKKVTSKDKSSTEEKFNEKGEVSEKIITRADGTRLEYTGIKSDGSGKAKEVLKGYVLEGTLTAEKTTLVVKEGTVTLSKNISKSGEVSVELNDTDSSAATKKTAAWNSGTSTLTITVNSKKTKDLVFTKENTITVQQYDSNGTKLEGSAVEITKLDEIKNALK
T4 sequence (P0CL66 18-273): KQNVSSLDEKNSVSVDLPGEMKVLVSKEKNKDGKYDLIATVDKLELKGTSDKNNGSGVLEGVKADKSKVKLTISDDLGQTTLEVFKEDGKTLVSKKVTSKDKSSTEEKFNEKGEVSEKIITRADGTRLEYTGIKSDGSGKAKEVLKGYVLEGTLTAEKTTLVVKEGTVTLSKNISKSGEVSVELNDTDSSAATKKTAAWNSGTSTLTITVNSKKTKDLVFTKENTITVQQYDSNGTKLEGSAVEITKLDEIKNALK
T2 sequence (P0A3N7 17-273): as the sequence (P0A3N7 17-273) above

Binder	binding result [1]	binding result [2]	binding result [3]	Kd [4] [pM]	MFI [5]	binding result [6]	binding result [7]	binding result [8]	binding result [9]	binding result [10]	MFI [6]	MFI [7]	MFI [8]
LA-2 IgG (antibody, V domains shown, also called OspA ST 1-specific IgG mAb LA-2) VH: QIQLVQSGPELKKPGETVKISCKASGYTFTDYSMYWVKQAPGKGLKRMGWINTETGEPTYADDFKGRFALSLDTSASTAYLHISNLKNEDTATYFCARGLDSWGQGTSVTVSS VL: DIQMTQSPSSLSATLGGKVTITCKASQDINKYIAWYQHKPGKGPRLLIHYTSTLQPGNPSRFSGSGSGRDYSFSISNLEAEDIAIYYCLQYDNLQRTFGGGTKVEIK	no binding (tested: 10 µg/ml)	no binding (tested: 10 µg/ml)	no binding (tested: 10 µg/ml)	64000	> 7000	no binding (tested: 10 µg/ml)	no binding (tested: 10 µg/ml)	no binding (tested: 10 µg/ml)	–	–	–	–	–
227-1, recombinant human monoclonal IgG1 (antibody, V domains shown, source: Expi293 cells, transiently transfected with VH and VL plasmids, purified (Protein A)) VH: EVQLVQSGAEVKMPGESLKISCEVSGYSFTSYWIGWVRQMPGKGLEWMGIIYPGDSDTRYSPSFQGQVTISADKSISTAYLQWSSLKASDTAMYYCTRSISRSGPGFSLSWFFDYWGQGTLVTVSS VL: AIQLTQSPSSLSASVGDRVTITCRASQGISNALAWYQQKPGKAPKLLIYDASSLERGVPSRFSGSGFGTDFTLTISSLQPEDFAIYYCQQFNGFPNTFGQGTRVEIK	–	–	–	1700	–	binds	binds	no binding	binds	binds	–	–	–
227-2, recombinant human monoclonal IgG1 (antibody, V domains shown, source: Expi293 cells, transiently transfected with VH and VL plasmids, purified (Protein A)) VH: EVQVVQSGAEVKKPGESLKISCKGSGYSFTSYWIGWVRQMPGKGLEWMGIIYPGDSDTRYSPSFQGQVTISADKSISTAYLQWSSLKASDTAMYYCVRSISRSGPGYILSWFFDYWGQGSLVTVSS VL: AIQLTQSPSSLSASVGDRVTITCRASQGISNALAWYQQKPGKAPKLLIYDASSLERGVPSRFSGSGFGTDFTLTISSLQPEDFAIYYCQQFNGFPNTFGQGTRVEIK	–	–	–	480	–	binds	binds	–	binds	binds	–	–	–
221-5, recombinant human monoclonal IgG1 (antibody, V domains shown, source: Expi293 cells, transiently transfected with VH and VL plasmids, purified (Protein A)) VH: EVQLVQSGAEVKKPGESLKISCKGSGYSFTSYWIGWVRQMPGKGLEWMGIIYPGDSDTRYSPSFQGQVTISADKSISTAYLQWSSLKASDTAMYYCARHLGIDYFFGMDVWGQGTTVTVSS VL: EIVLTQSPATLSLSPGERATLSCRASQSVSSYLAWYQQKPGQAPRLLIYDASTRDTGIPARFSGSGSGTDFTLTISSLEPEDFAVYYCQHHSNWYTFGQGTKLEIK	–	–	–	520	> 4000	–	–	–	–	–	> 4000	> 4000	> 4000
221-20, recombinant human monoclonal IgG1 (antibody, V domains shown, source: Expi293 cells, transiently transfected with VH and VL plasmids, purified (Protein A)) VH: EIQLVQSGTEVKKPGESLRISCRVSGYSFTNYWVAWVRQMPGKGLEWMGIIWPGDSDTRYSPSFQGQVTISADKSINTAYLQWSSLKASDTAVYYCARHLGIDYFFGLDVWGQGTTVTVSS VL: EIVLTQSPATLSLSPGERATLSCRASQSVSSYLAWYQQKPGQAPRLLIYDASSRATGIPARFSGSGSGTDFTLTISSLEPEDFAVYYCQHLSNWYTFGQGTNLEIK	–	–	–	370	> 4000	–	–	–	–	–	> 4000	> 4000	> 4000
221-7, recombinant human monoclonal IgG1 (antibody, V domains shown, source: Expi293 cells, transiently transfected with VH and VL plasmids, purified (Protein A)) VH: EVQLVQSGSEVKKPGESLKISCQVSGYSFTSYWIGWVRQMPGKGLERVGFIYPGDSDTRYSPSFQGQVTISADKSISTAYLQWSSLKASDTAMYYCARGILRYFDWFLDYWGQGTLVTVSS VL: AIQLTQSPSSLSASVGDRVTITCRASQGISSGSAWYQQKPGKAPKLLIYDVSSLESGVPSRFSGSGSGTEFTLTISSLQPEDFATYYCQQFNSYLLTFGGGTKVEIK	–	–	–	660	–	–	–	–	–	–	–	–	–
223-5, recombinant human monoclonal IgG1 (antibody, V domains shown, source: Expi293 cells, transiently transfected with VH and VL plasmids, purified (Protein A)) VH: EVQLVQSGAEVKKPGESLKISCKGSGYSLTSYWIGWVRQMPGKGLEWMGIIWPGDSDTRYSPSFQGQVTISADKSISTAYLQWSSLKASDTAMYYCARYVTVGAFDFWGQGTMVTVSS VL: AIQLTQSPSSLSASVGDRVTITCRASQGISSALAWYQQKPGKTPKLLIYDVSSLESGVPSRFSGSGCGTDFTLTISSVQPEDFATYYCQQFNSYLWTFGQGTKVEIK	–	–	–	170	–	–	–	–	–	–	–	–	–
221-11, recombinant human monoclonal IgG1 (antibody, V domains shown, source: Expi293 cells, transiently transfected with VH and VL plasmids, purified (Protein A)) VH: EVQLVQSGAEVKKPGESLKISCQSSGYRFTIYWIGWVRQMPGKGLEWMGIIWPGDSDTRYSPSFQGQVTISADKSISTAYLQWSSLKASDTAMYYCVRGIGRYSNWFLDYWGQGTLVTVSS VL: AIQLTQSPSSLSASVGDRVTITCRASQGFSSALAWYQQKPGKAPKLLIYDASSLESGVPSRFSGSGSGTDFTLTISSLQPEDFATYYCQQFNSYPLTFGGGTKVEIK	–	–	–	350	–	binds	binds	–	binds	binds	–	–	–
857-2, recombinant human monoclonal IgG1 (antibody, V domains shown, source: Expi293 cells, transiently transfected with VH and VL plasmids, purified (Protein A)) VH: EVQLVQSGEEVKKPGESLKISCKGSGYKFSSYWIGWVRQMPGKGLEWMGIIFPGDSDKRYSPSFQGQVTISADKSISTVYLQWSSLKASDTAMYYCARHITTHTYRGFFDFWGQGTLVTVSS VL: AIQLTQSPSSLSASVGDRVTITCRASQDISSALAWYQQKPGKAPKLLIYDVSSLESGVPSRFSGSGSGTDFTLTISSLQPEDFATYYCQQFNGYPHRLTFGGGTKVEIK	–	–	–	300	> 4000	–	–	–	–	–	> 4000	> 4000	> 4000
